Patent US20250115663A1 (CELLDEX THERAPEUTICS, published 2025)

T1: kappa-sCD40(1-94)-Flag point mutant E36K (human, UniProt P25942 21-114)
T1 construct: not shown: N-terminal human kappa light chain; C-terminal Flag tag
T1 chain: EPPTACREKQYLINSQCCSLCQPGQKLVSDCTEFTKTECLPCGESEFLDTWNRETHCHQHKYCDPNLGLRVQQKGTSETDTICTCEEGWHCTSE

T2: kappa-sCD40(1-94)-Flag point mutant T4V (human, UniProt P25942 21-114)
T2 construct: not shown: N-terminal human kappa light chain; C-terminal Flag tag
T2 chain: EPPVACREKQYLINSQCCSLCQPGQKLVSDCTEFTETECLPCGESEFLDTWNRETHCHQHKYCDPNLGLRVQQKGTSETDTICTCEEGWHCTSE

T3: kappa-sCD40(1-94)-Flag point mutant E33A (human, UniProt P25942 21-114)
T3 construct: not shown: N-terminal human kappa light chain; C-terminal Flag tag
T3 chain: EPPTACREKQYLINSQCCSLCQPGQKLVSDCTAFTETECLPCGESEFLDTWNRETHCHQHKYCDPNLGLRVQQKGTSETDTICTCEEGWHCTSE

T4: kappa-sCD40(1-94)-Flag point mutant P3S (human, UniProt P25942 21-114)
T4 construct: not shown: N-terminal human kappa light chain; C-terminal Flag tag
T4 chain: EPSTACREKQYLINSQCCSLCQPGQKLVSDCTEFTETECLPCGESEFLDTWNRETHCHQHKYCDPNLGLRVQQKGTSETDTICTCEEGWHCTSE

T5: kappa-sCD40(1-94)-Flag point mutant T35E (human, UniProt P25942 21-114)
T5 construct: not shown: N-terminal human kappa light chain; C-terminal Flag tag
T5 chain: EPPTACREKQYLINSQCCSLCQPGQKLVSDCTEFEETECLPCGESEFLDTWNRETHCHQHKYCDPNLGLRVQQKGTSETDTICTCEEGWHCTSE

T6: kappa-sCD40(1-94)-Flag point mutant A5T (human, UniProt P25942 21-114)
T6 construct: not shown: N-terminal human kappa light chain; C-terminal Flag tag
T6 chain: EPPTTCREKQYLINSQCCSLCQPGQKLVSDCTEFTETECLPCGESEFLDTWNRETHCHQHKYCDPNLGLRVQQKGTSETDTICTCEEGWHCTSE

T7: kappa-sCD40(1-94)-Flag mutant fragment D (multiple mutations of residues 33-36) (human, UniProt P25942 21-114)
T7 construct: The text says only multiple mutations of residues 33-36 (human to mouse differences); that mutant D carries exactly these is inferred; also called D (33-36); not shown: N-terminal human kappa light chain; C-terminal Flag tag
T7 chain: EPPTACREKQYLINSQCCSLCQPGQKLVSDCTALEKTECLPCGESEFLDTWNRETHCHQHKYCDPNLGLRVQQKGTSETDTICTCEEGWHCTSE

T8: kappa-sCD40(1-94)-Flag point mutant F34L (human, UniProt P25942 21-114)
T8 construct: not shown: N-terminal human kappa light chain; C-terminal Flag tag
T8 chain: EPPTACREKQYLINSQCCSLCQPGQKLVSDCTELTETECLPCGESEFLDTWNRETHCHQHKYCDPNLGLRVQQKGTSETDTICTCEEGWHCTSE


Legend:
[1] = molecular target: T9, recombinant human CD40-Fc (human, UniProt P25942 21-193); assay: ELISA on coated recombinant human CD40-Fc, detection anti-human IgG F(ab')2-HRP, OD 450-650
T9 construct: also called soluble recombinant human CD40/Fc chimera from R&D Systems; not shown: The antibody Fc domain of the R&D Systems chimera and any linker to it
T9 sequence (P25942 21-193 limits assumed, form in doubt): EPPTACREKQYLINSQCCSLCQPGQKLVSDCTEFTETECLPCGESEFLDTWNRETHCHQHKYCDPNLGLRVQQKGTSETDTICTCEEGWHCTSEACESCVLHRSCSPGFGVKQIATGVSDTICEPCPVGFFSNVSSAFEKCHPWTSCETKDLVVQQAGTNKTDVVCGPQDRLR
Experimental: Microtiter plates were coated with recombinant human CD40-Fc in PBS, and then blocked with 5% bovine serum albumin in PBS. […] The plates were washed with PBS/Tween and then incubated with a goat-anti-human IgG F(ab′)2-specific polyclonal reagent conjugated to horseradish peroxidase at 37° C. After washing, the plates were developed with HRP substrate, and analyzed at OD 450-650 using a microtiter plate reader.

[2] = molecular target: T1, kappa-sCD40(1-94)-Flag point mutant E36K; assay: ELISA, kappa-sCD40-Flag fusion captured on anti-Flag, anti-human IgG Fc-HRP
[3] = molecular target: T10, kappa-sCD40-Flag fusion protein, fragment amino acids 84-173 (human, UniProt P25942 104-193); assay: as above
T10 construct: not shown: N-terminal human kappa light chain; C-terminal Flag tag
T10 sequence (P25942 104-193): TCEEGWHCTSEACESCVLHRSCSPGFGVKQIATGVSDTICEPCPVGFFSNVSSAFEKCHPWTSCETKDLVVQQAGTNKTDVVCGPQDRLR

[4] = molecular target: T2, kappa-sCD40(1-94)-Flag point mutant T4V; assay: as above
[5] = molecular target: T3, kappa-sCD40(1-94)-Flag point mutant E33A; assay: as above
[6] = molecular target: T11, kappa-sCD40-Flag fusion protein, full length ECD amino acid residues 1-173 (human, UniProt P25942 21-193); assay: as above
T11 construct: also called full length sCD40; not shown: N-terminal human kappa light chain; C-terminal Flag tag

[7] = molecular target: T4, kappa-sCD40(1-94)-Flag point mutant P3S; assay: as above
[8] = molecular target: T12, kappa-sCD40-Flag fusion protein, fragment amino acids 36-130 (human, UniProt P25942 56-150); assay: as above
T12 construct: not shown: N-terminal human kappa light chain; C-terminal Flag tag
T12 sequence (P25942 56-150): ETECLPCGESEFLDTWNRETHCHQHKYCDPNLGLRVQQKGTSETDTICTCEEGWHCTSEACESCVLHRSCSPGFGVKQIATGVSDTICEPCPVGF

[9] = molecular target: T5, kappa-sCD40(1-94)-Flag point mutant T35E; assay: as above
[10] = molecular target: T13, kappa-sCD40-Flag fusion protein, fragment amino acids 1-94 (human, UniProt P25942 21-114); assay: as above
T13 construct: also called sCD40aa 1-94; not shown: N-terminal human kappa light chain; C-terminal Flag tag

[11] = molecular target: T14, kappa-sCD40(1-94)-Flag point mutant E1G (human, UniProt P25942 22-114); assay: as above
T14 construct: not shown: N-terminal human kappa light chain; C-terminal Flag tag

[12] = molecular target: T15, kappa-sCD40(1-94)-Flag mutant fragment A (multiple mutations of residues 1-5) (human, UniProt P25942 26-114); assay: as above
T15 construct: The text says only multiple mutations of residues 1-5 (human to mouse differences); that mutant A carries exactly these is inferred; also called A (1-5); not shown: N-terminal human kappa light chain; C-terminal Flag tag

[13] = molecular target: T6, kappa-sCD40(1-94)-Flag point mutant A5T; assay: as above
[14] = molecular target: T7, kappa-sCD40(1-94)-Flag mutant fragment …; assay: as above
[15] = molecular target: T8, kappa-sCD40(1-94)-Flag point mutant F34L; assay: as above

| Binder | EC50 (read off the curve) [1] [pM] | OD [2] [OD 450-650] | OD [3] [OD 450-650] | OD [4] [OD 450-650] | OD [5] [OD 450-650] | OD [6] [OD 450-650] | OD [7] [OD 450-650] | OD [8] [OD 450-650] | OD [9] [OD 450-650] | OD [10] [OD 450-650] | OD [11] [OD 450-650] | OD [12] [OD 450-650] | OD [13] [OD 450-650] | OD [14] [OD 450-650] | OD [15] [OD 450-650] |
| --- | --- | --- | --- | --- | --- | --- | --- | --- | --- | --- | --- | --- | --- | --- | --- |
| anti-CD40 human monoclonal antibody 3C3 (antibody, human IgG2, kappa, V domains shown, Human IgG2, C-terminal lysine removed; also called anti-CD40 mAb 3C3; CD40 antibody 3C3) VH: QVQLVESGGGVVQPGRSLRLSCAGSGFIFSRYGMYWVRQAPGKGLEWVAVIWYDGSYKYYADSVKGRFTISRDNSKNTLYLQMNSLRAEDTAVYYCARESPWYYFDYWGQGTLVTVSS VL: DIQMTQSPSSLSASVGDRVTITCRASQGISNYLAWYQQKPGKVPKLLIYAASTLQSGVPSRFSGSGSGTDFTLTISSLQPEDVATYYCQKYKSAPFTFGPGTKVDIKR | ~400 | 1.69 | 0.024 | 2.21 | 1.7 | 2.36 | 2.01 | 0.029 | 2.1 | 2.15 | 2.01 | 0.25 | 1.51 | 0.233 | 1.84 |
| anti-CD40 human monoclonal antibody 3G5 (antibody, human IgG2, V domains shown, Human IgG2) VH: QVQLVESGGGVVQPGKSLRLSCAASGFTFSSNGIHWVRQAPGKGLEWVAVIWSDGSNKFYADSVKGRFTISRDNSKNTLYLQMNSLRAEDTAVYYCARASGSGSYYNFFDYWGQGTLVTVSS VL: EIVMTQSPATLSVSPGERATLSCRASQSVRSNLAWYQQKPGQAPRLLIYGASTRATGIPARFSGSGSGTEFTLTINSLQSEDFAVYYCQQHNKWITFGQGTRLEIK | ~400 | 1.93 | 0.038 | 2.21 | 0.074 | 2.21 | 2.19 | 0.048 | 2.13 | 2.17 | 2.08 | 2.14 | 2.2 | 0.042 | 1.19 |
